# Numbering of substitutions follows the chain as printed. Numbers in names are those of the source.
# B1: anti-mutCALR antibody clone 172 (antibody, human IgG1, lambda, N297A, V domains shown)
# VH: EVQLVQSGAEVKKPGASVKVSCKVSGYTLTELSMQWVRQAPGKGLEWMGGFDPDSGETMYAEKFQGRLTVTEDTSTDTVYMELRSLTSEDTALYFCATSPGYDFFDYWGQGTLVTVSS
# VL: SYVLTQPPSVSVAPGQTARITCGGSDIGDEIVHWYQQKPGQAPVLVVYDDSDRPSGIPERFSGSNSGNTATLTISRAQAGDEADYYCQVWDSSSDHLIFGGGTKLTVLG
# notes: human IgG1 N297A variant of clone 17
# B2: anti-mutCALR antibody clone 178 (antibody, human IgG1, lambda, N297A, V domains shown)
# VH: B1 VH with S55E, R84S, T87R, L93V
# VL: B1 VL
# notes: as for B1
# B3: anti-mutCALR antibody clone 179 (antibody, human IgG1, lambda, N297A, V domains shown)
# VH: B1 VH with S55D, G56A, R84S, T87R, L93V
# VL: B1 VL
# notes: as for B1
# B4: anti-mutCALR antibody clone 177 (antibody, human IgG1, lambda, N297A, V domains shown)
# VH: B1 VH with R84S, T87R, L93V
# VL: B1 VL
# notes: as for B1
# B5: anti-mutCALR antibody clone 70 (antibody, human IgG1, lambda, N297A, V domains shown)
# VH: B1 VH with S55D, R84S, T87R, L93V
# VL: SYVLTQPPSVSVAPGKTARITCTGTSSDVGGYNYVSWYQQKPGQAPVLVVYEVSNRPSGIPERFSGSNSGNTATLTISRVEAGDEADYYCQVWDSSNDLLIFGGGTKLTVLG
# notes: human IgG1 N297A variant of clone 6
# B6: anti-mutCALR antibody clone 188 (antibody, human IgG1, lambda, N297A, V domains shown)
# VH: B1 VH with S55E, R84S, T87R, L93V
# VL: B1 VL with A77V, Q78E
# notes: as for B1
# B7: anti-mutCALR antibody clone 187 (antibody, human IgG1, lambda, N297A, V domains shown)
# VH: B1 VH with R84S, T87R, L93V
# VL: B1 VL with A77V, Q78E
# notes: as for B1
# B8: anti-mutCALR antibody clone 182 (antibody, human IgG1, lambda, N297A, V domains shown)
# VH: B1 VH
# VL: B1 VL with A77V, Q78E
# notes: as for B1
# B9: anti-mutCALR antibody clone 67 (antibody, human IgG1, lambda, N297A, V domains shown)
# VH: B1 VH
# VL: B5 VL
# notes: as for B5
# B10: anti-mutCALR antibody clone 180 (antibody, human IgG1, lambda, N297A, V domains shown)
# VH: B1 VH with S55D
# VL: B1 VL with A77V, Q78E
# notes: as for B1
# B11: anti-mutCALR antibody clone 174 (antibody, human IgG1, lambda, N297A, V domains shown)
# VH: B1 VH with S55D, G56A
# VL: B1 VL
# B12: anti-mutCALR antibody clone 183 (antibody, human IgG1, lambda, N297A, V domains shown)
# VH: B1 VH with S55E
# VL: B1 VL with A77V, Q78E
# B13: anti-mutCALR antibody clone 185 (antibody, human IgG1, lambda, N297A, V domains shown)
# VH: B1 VH with S55D, R84S, T87R, L93V
# VL: B1 VL with A77V, Q78E
# notes: as for B1
# B14: anti-mutCALR antibody clone 186 (antibody, human IgG1, lambda, N297A, V domains shown)
# VH: B1 VH with S55A, R84S, T87R, L93V
# VL: B1 VL with A77V, Q78E
# notes: as for B1
# B15: anti-mutCALR antibody clone 73 (antibody, human IgG1, lambda, N297A, V domains shown)
# VH: B1 VH with S55E, R84S, T87R, L93V
# VL: B5 VL
# notes: as for B5
# B16: anti-mutCALR antibody clone 173 (antibody, human IgG1, lambda, N297A, V domains shown)
# VH: B1 VH with S55E
# VL: B1 VL
# B17: anti-mutCALR antibody clone 72 (antibody, human IgG1, lambda, N297A, V domains shown)
# VH: B1 VH with R84S, T87R, L93V
# VL: B5 VL
# notes: as for B5
# B18: anti-mutCALR antibody clone 181 (antibody, human IgG1, lambda, N297A, V domains shown)
# VH: B1 VH with S55A
# VL: B1 VL with A77V, Q78E
# notes: as for B1
# B19: anti-mutCALR antibody clone 69 (antibody, human IgG1, lambda, N297A, V domains shown)
# VH: B1 VH with S55D, G56A
# VL: B5 VL
# notes: as for B5
# B20: anti-mutCALR antibody clone 71 (antibody, human IgG1, lambda, N297A, V domains shown)
# VH: B1 VH with S55A, R84S, T87R, L93V
# VL: B5 VL
# notes: as for B5
# B21: anti-mutCALR antibody clone 66 (antibody, human IgG1, lambda, N297A, V domains shown)
# VH: B1 VH with S55A
# VL: B5 VL
# notes: as for B5
# B22: anti-mutCALR antibody clone 189 (antibody, human IgG1, lambda, N297A, V domains shown)
# VH: B1 VH with S55D, G56A, R84S, T87R, L93V
# VL: B1 VL with A77V, Q78E
# B23: anti-mutCALR antibody clone 68 (antibody, human IgG1, lambda, N297A, V domains shown)
# VH: B1 VH with S55E
# VL: B5 VL
# notes: as for B5
# B24: anti-mutCALR antibody clone 184 (antibody, human IgG1, lambda, N297A, V domains shown)
# VH: B1 VH with S55D, G56A
# VL: B1 VL with A77V, Q78E
# notes: as for B1
# B25: anti-mutCALR antibody clone 55 (antibody, human IgG1, lambda, N297A)
# heavy: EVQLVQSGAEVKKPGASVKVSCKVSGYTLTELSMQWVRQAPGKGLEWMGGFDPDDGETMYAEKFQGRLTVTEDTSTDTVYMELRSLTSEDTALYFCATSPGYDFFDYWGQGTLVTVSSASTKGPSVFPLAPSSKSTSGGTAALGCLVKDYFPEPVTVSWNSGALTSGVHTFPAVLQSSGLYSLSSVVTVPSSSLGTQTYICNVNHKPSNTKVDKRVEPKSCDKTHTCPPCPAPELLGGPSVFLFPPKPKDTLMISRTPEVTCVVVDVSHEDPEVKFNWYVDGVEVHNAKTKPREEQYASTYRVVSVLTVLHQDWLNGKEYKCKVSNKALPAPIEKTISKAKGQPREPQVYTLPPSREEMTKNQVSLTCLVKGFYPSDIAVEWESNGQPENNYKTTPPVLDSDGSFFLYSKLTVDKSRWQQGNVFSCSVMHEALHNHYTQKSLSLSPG
# light: QSALTQPASVSGSPGQSITISCTGTSSDVGGYNYVSWYQQHPGKAPKLMIYEVSNRPSGVSNRFSGSNSGNTATLTINRVEAGDEADYYCQVWDSSNDLLIFGGGTKLTVLGQPKAAPSVTLFPPSSEELQANKATLVCLISDFYPGAVTVAWKADSSPVKAGVETTTPSKQSNNKYAASSYLSLTPEQWKSHRSYSCQVTHEGSTVEKTVAPTECS
# notes: human IgG1 N297A variant of clone 6; also called antibody 55
# B26: anti-mutCALR antibody clone 58 (antibody, human IgG1, lambda, N297A, V domains shown)
# VH: B1 VH with S55E
# VL: QSALTQPASVSGSPGQSITISCTGTSSDVGGYNYVSWYQQHPGKAPKLMIYEVSNRPSGVSNRFSGSNSGNTATLTINRVEAGDEADYYCQVWDSSNDLLIFGGGTKLTVLG
# notes: as for B5
# B27: anti-mutCALR antibody clone 63 (antibody, human IgG1, lambda, N297A, V domains shown)
# VH: B1 VH with S55E, R84S, T87R, L93V
# VL: B26 VL
# notes: as for B5
# B28: anti-mutCALR antibody clone 59 (antibody, human IgG1, lambda, N297A, V domains shown)
# VH: B1 VH with S55D, G56A
# VL: B26 VL
# notes: as for B5
# B29: anti-mutCALR antibody clone 62 (antibody, human IgG1, lambda, N297A, V domains shown)
# VH: B1 VH with R84S, T87R, L93V
# VL: B26 VL
# notes: as for B5
# B30: anti-mutCALR antibody clone 61 (antibody, human IgG1, lambda, N297A, V domains shown)
# VH: B1 VH with S55A, R84S, T87R, L93V
# VL: B26 VL
# notes: as for B5
# B31: anti-mutCALR antibody clone 60 (antibody, human IgG1, lambda, N297A, V domains shown)
# VH: B1 VH with S55D, R84S, T87R, L93V
# VL: B26 VL
# notes: as for B5
# B32: anti-mutCALR antibody clone 57 (antibody, human IgG1, lambda, N297A, V domains shown)
# VH: B1 VH
# VL: B26 VL
# notes: as for B5
# B33: anti-mutCALR antibody clone 64 (antibody, human IgG1, lambda, N297A, V domains shown)
# VH: B1 VH with S55D, G56A, R84S, T87R, L93V
# VL: B26 VL
# notes: as for B5
# B34: anti-mutCALR antibody clone 56 (antibody, human IgG1, lambda, N297A, V domains shown)
# VH: B1 VH with S55A
# VL: B26 VL
# notes: as for B5
# Target: T1, Recombinant MBP-mutCALR Type 1 fusion protein (human)
# T1 construct: custom made at Cepter; also called recombinant mutCALR protein
# Experiment: SPR, IgG captured, 1:1 fit, Exp. 2
# Method: Experiment 2: Recombinant MBP-mutCALR Type 1 fusion protein was custom made at Cepter (cepterbiopartners.com). Data for the interaction of antibodies with recombinant mutCALR protein were collected at 25° C. on a Biacore 8K instrument (Cytiva, Marlborough, Mass.), and all reagents were obtained from Cytiva unless otherwise specified. The experiments were conducted using Tris-buffered saline (pH 7.2), 0.005% Surfactant P20, 1 mM CaCl₂) as running buffer. To prepare the capture surfaces, anti-human IgG (Fc) antibodies (Product #29234600) was amine-coupled onto a CM4 chip (Product #BR100534) under standard conditions using an Amine Coupling Kit (Product #BR100050). […] The kinetics parameters were obtained by applying 1:1 binding model to fit the data from multiple-cycle injection experiments using Biacore Insight Evaluation software.
Binder,Kd [nM],koff [s⁻¹],kon [M⁻¹ s⁻¹]
B1,2.24,0.0025,1.12e+06
B2,1.21,0.00123,1.02e+06
B3,0.455,0.00681,1e+07
B4,1.49,0.00549,3.7e+06
B5,0.966,0.000953,987000
B6,1.65,0.00121,732000
B7,1.59,0.0163,1e+07
B8,1.23,0.00692,5.62e+06
B9,3.34,0.0102,3.05e+06
B10,0.198,0.127,> 1e+07
B11,0.526,0.0041,7.8e+06
B12,1,0.00124,1.23e+06
B13,0.171,0.000911,5.32e+06
B14,2.86,0.00243,848000
B15,0.76,0.00546,7.18e+06
B16,0.653,0.00349,5.35e+06
B17,3.74,0.00382,1.02e+06

Binder,Kd [nM],koff [s⁻¹],kon [M⁻¹ s⁻¹]
B18,1.58,0.0209,1e+07
B19,0.53,0.00527,9.94e+06
B20,2.31,0.0107,4.63e+06
B21,2.36,0.00836,3.54e+06
B22,0.422,0.0153,> 1e+07
B23,1.15,0.00166,1.44e+06
B24,1.57,0.000673,428000
B25,0.171,0.000911,5.32e+06
B26,0.343,0.00232,6.76e+06
B27,0.244,0.000691,2.83e+06
B28,1.44,0.00136,945000
B29,1.76,0.00621,3.52e+06
B30,0.893,0.00369,4.13e+06
B31,1.15,0.00166,1.44e+06
B32,0.637,0.0039,6.12e+06
B33,0.638,0.00248,3.89e+06
B34,3.08,0.00212,690000
